Measured values taken from PMC8307404, “Crystal Structure-Guided Design of Bisubstrate Inhibitors and Photoluminescent Probes for Protein Kinases of the PIM Family” (Molecules, 2021).
Square brackets hold non-standard residues; d marks the D form. Ends that are not written are not given here.

Assays:
Assay in all cases: fluorescence polarisation + other: time-gated luminescence intensity (TGLI); binding/displacement assay in solution with the probes ARC-1451, ARC-1188 or ARC-583; 20 min at 30 °C; 50 mM HEPES pH 7.4, 150 mM NaCl, 5 mM dithiothreitol, 0.5 mg/mL BSA, 0.005% Tween-20; N = 2
Conditions in all cases: both partners purified
protein kinase PIM-1 = protein kinase PIM-1 (human, UniProt P11309 1-313)
protein kinase PIM-2 = protein kinase PIM-2 (human, UniProt Q9P1W9 1-311)
protein kinase PIM-3 = protein kinase PIM-3 (human, UniProt Q86V86 1-326)
[1] = target: catalytic subunit α of protein kinase A (human, UniProt P17612 1-351)

protein kinase PIM-2, sequence (Q9P1W9 whole entry): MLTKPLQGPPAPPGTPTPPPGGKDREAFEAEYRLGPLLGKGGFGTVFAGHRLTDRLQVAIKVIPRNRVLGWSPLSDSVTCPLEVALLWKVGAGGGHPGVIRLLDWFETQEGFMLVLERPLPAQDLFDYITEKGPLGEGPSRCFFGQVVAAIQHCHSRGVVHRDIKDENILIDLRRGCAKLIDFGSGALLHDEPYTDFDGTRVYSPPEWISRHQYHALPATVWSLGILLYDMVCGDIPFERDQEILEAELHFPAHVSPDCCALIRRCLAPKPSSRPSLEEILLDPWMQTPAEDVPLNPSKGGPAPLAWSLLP
protein kinase PIM-1, sequence (P11309 whole entry): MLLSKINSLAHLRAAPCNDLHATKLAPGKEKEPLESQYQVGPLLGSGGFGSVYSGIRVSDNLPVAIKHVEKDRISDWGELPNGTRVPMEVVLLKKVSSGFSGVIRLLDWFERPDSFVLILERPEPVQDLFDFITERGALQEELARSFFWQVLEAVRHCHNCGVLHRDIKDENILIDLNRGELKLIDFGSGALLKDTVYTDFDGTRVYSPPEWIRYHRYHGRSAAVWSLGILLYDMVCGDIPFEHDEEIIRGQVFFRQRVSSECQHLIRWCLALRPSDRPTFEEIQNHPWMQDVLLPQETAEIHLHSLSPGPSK

B1: PIM peptide, (D-Arg)2-Gly-D-Arg-D-Lys-NH2 (peptide)
peptide: [dR][dR]G[dR][dK]-NH2
modifications: N-terminus assumed
SMILES: N=C(N)NCCC[C@@H](N)C(=O)N[C@H](CCCNC(=N)N)C(=O)NCC(=O)N[C@H](CCCNC(=N)N)C(=O)N[C@H](CCCCN)C(N)=O
notes: printed in three-letter code as (D-Arg)2-Gly-D-Arg-D-Lys-NH2; All chiral residues are D-amino acids; This is the peptide part of compounds 1-5, without the adenosine analogue moiety and the linker; also called designed peptide mimetic moiety of compounds 1-5; source: synthetic peptide (Fmoc solid-phase synthesis on Rink amide resin, HPLC purified)
Protein kinase PIM-1
  Kd: > 11.5 µM
Protein kinase PIM-2
  Kd: > 46 µM
Protein kinase PIM-3
  Kd: > 16.4 µM
[1]
  Kd: > 89 µM
